For 71 sequences, Kd results are on record in the Immune Epitope Database (IEDB).

The target of this test is HLA-A*02:01. Description: IEDB peptide-MHC binding, purified MHC/competitive/radioactivity; filed as Kd, often an IC50 or EC50 that approximates it; ≥ and ≤ were set here for values at or beyond the usual limits of such assays. The settings on record: source organism: Mycobacterium tuberculosis.
Consider LALVLLMLPV, for which the Kd is 0.333 µM. LLGSFELTGI: the Kd turned out to be 0.026 µM. For GLYYLTTEV the value was 0.0208 µM; for GIVSGILLSI, 0.151 µM. The same measure for WLLIDTSNA: 0.357 µM. For SLYFGGICV the value was 0.0106 µM; for LMIGTAAAVV, 0.054 µM. As for VLLLDVTPL, the Kd stood at 0.05 µM.

On to AMKADIQHV, for which the Kd is 0.167 µM. The same measure for AIYHPQQFV: 0.313 µM; for MLASTLTDA: 0.25 µM. Take ILLSIARVV: the Kd worked out at 0.455 µM. The same measure for LLCCSGVATA: 0.151 µM; for WMAETTLGRV: 0.294 µM. For GLYRQWALA the value was 0.185 µM. For LLAAGVADPV the value was 0.217 µM. Regarding RLQPQVGWEV, the Kd was 0.178 µM.

For the sequence GLMTAVYLV, the Kd was 0.0089 µM. The same measure for MLQDMAILT: 0.167 µM. For LLLDVTPLSL the value was 0.017 µM. Take FMSLAGFVRM: the Kd is 0.116 µM.

For AMALLRLPLV, the dissociation constant (Kd) is 0.0051 µM. For TVLRFVPPL the value was 0.0769 µM; for SLAGFVRML, 0.111 µM; for GLGGLGLFFA, 0.0892 µM.

Consider YTYKWETFL, for which the Kd was found to be 0.029 µM. For VLLEDGGVEV the value was 0.333 µM. Turning to LLFRFMRPLI, the Kd was 0.0833 µM.

With GLVDFVKHI, the Kd came out at 0.217 µM. On to MLGNAPSVV, for which the Kd came out at 0.227 µM. For YLSQIAVLL the value was 0.0121 µM; for FLLPDAQSI, 0.385 µM. For the sequence LLFRFMRPL, the Kd turned out to be 0.0357 µM. For LLACAVIHA the value was 0.25 µM. The same measure for RMSRVTTFTV: 0.0755 µM; for MALLRLPLV: 0.0526 µM; for AIAWGAWGEV: 0.312 µM. The same measure for LLWQDPVPA: 0.0454 µM; for ILSSLGLPV: 0.05 µM; for RIANGMGATV: 0.385 µM. On to FLMPVEDVFI, for which the Kd stood at 0.0033 µM. The same measure for AMLQDMAIL: 0.098 µM; for RLLDDTPEV: 0.0961 µM. On to AVHDTLFYCV, for which the Kd was found to be 0.104 µM. With LLFLGVVFL, the equilibrium dissociation constant (Kd) is 0.05 µM. The same measure for GLAGTVLRFV: 0.109 µM; for FVVALIPLV: 0.0076 µM. The same measure for RMPAVTDLV: 0.125 µM. For YLLALRYLA the value was 0.01 µM; for RLMIGTAAA, 0.227 µM; for YLSEGDMAA, 0.294 µM.

Consider ALLSDWLPA, for which the Kd amounted to 0.0943 µM. On to KIFMLVTAVV, for which the Kd is 0.417 µM.

Regarding KLTADGVLTA, the Kd came to 0.2 µM. For ALVLLMLPVV the value was 0.0068 µM; for MTYAAPLFV, 0.0138 µM; for GLFLTTEAVV, 0.238 µM. The same measure for LLPLGYPFV: 0.333 µM. The same measure for LLLETSWEAI: 0.106 µM. Take ALYLLDGLRA: the Kd came out at 0.263 µM. Consider LMLPGMNGI, for which the Kd came to 0.238 µM. The same measure for FLTCDANLAV: 0.104 µM; for SLLEIGEGV: 0.098 µM; for ATYDKGILTV: 0.156 µM. For GLYGAQYDV the value was 0.25 µM.

With LLATVFKLTA, the Kd amounted to 0.25 µM. The same measure for SLLEIGEGVV: 0.05 µM. For FLLADERVRV the value was 0.116 µM; for MLATDLSLRV, 0.109 µM; for SLYFGGICVI, 0.167 µM. For YLYVHSPAL the value was 0.0054 µM.
